Results on 14 molecules are retold here after patent US20170088617A1 (Boehringer Ingelheim, published 2017).

In test [1] the target is T1, cynomolgus CD33 on the recombinant HEK293-cynomolgusCD33 cell line (cynomolgus, UniProt A0A7N9ICR5 17-359).
T1 construct: whole, on cells
Description: FACS Scatchard analysis on HEK293-cynomolgusCD33 cells. The method, then:
(§1) Fourteen CD33 binding agents (fully human monoclonal antibodies as listed in table 1 as No. 1-14, respectively) to human and cynomolgus CD33 were determined by FACS Scatchard analysis as described in Brockhoff et al., (Cytometry. 1994 Sep. 1; 17(1):75-83) on CD33 expressing cells (AML-derived HL60 cell line, recombinant HEK293-cynomolgusCD33 cell line). Briefly, dilutions of a CD33 binding agent were prepared in a 96 well plate starting with 100-400 nM in the first well (80 pil), followed by 11 dilution steps (1:2, 40+40 μl). 50 μl of CD33 binding agent dilutions are added to FACS tubes, 150 μl cells (0.8×10⁶/ml=1.2×10⁵ cells/tube) are added to each FACS tube. Cells were gently mixed and incubated for 1 h on ice. Thereafter 50 μl FITC conjugated secondary antibody (concentration 15 μg/ml; mouse mAb anti-human IgG) was added, mixed, and incubated for 30 min. on ice. 4 ml PBS ph7.2 containing 0.02% […] were added thereafter, cells were pelleted and resuspended in 300 μl PBS pH 7.2 and subjected to FACS analysis using a BD FACS Canto. All experimental steps were performed on wet ice, all CD33 binding agent dilutions were made in PBS/0.5% BSA+0.02% acid. FACS calibration was performed using Quantum FITC MESF (Premix) Beads (Bangs Laboratories). All samples were measured using the same FACS parameters. […] A regression line was drawn through the resulting data points, the slope of this line corresponds to the negative value of the association constant.

The target in test [2] is T2, human CD33 on the AML-derived HL60 cell line (human, UniProt P20138 18-364).
T2 construct: whole, on cells; also called CD33 expressing HL60 cell line
T2 sequence (P20138 18-364): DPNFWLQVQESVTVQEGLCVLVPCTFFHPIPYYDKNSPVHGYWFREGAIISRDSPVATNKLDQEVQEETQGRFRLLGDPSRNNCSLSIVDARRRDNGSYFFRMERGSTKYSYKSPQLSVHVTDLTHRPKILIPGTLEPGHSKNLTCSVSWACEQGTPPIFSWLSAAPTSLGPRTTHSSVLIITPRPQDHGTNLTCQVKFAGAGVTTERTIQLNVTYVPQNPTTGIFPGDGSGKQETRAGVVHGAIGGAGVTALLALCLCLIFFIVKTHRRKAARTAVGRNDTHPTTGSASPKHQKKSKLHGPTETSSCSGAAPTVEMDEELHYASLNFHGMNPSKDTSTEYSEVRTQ
Description: FACS Scatchard analysis on HL60 cells. How it is done: as §1

B1: 280-03-08 (antibody, human IgG1, kappa, V domains shown)
VH: QVQLVQSGAEVKKPGSSVKVSCKASGGTFSDYAISWVRQAPGQGLEWMGRIIPILGVANYAQKFQGRVTITADKSTRTAYMELSSLRSEDTAVYYCARNWADAFDIWGQGTMVTVSS
VL: DIQLTQSPSSLSASVGDRVTITCRASQGISSVLAWYQQKPGKAPKLLIYDASSLESGVPSRFSGSGSGTDFTLTISSLQPEDFATYYCQQFNSSITFGQGTKLEIKR
notes: Fully human monoclonal antibody; also called No 1; Clone ID# 280-03-08
What is called Kd is a measure of binding affinity in units of concentration. For B1, the dissociation constant Kd in test [1] amounted to 0.03 nM; in test [2], 0.3 nM.

B2: 280-34-02 (antibody, human IgG1, kappa, V domains shown)
VH: QVELVQSGAEVQKPGSSVKVSCKASGDTFSSYAISWVRQAPGQGLEWMGRIIPIVGIVNYAEKFQGRVTITADKSMSTAYMELSSLRSEDTAVYYCARNWADAFDIWGQGTMVTVSS
VL: DIQLTQSPSSLSASVGDRVTITCRASQGISSALAWYQQKPGKAPKLLIYDASRLESGVPSRFSGSGSGTDFTLTISSLQPEDFTTYYCQQFNSSYTFGQGTKLEIKR
notes: Fully human monoclonal antibody; also called No 6; Clone ID# 280-34-02
As for B2, the dissociation constant (Kd) is 0.5 nM in test [1] and 0.3 nM in test [2].

B3: 283-07-03 (antibody, human IgG1, kappa, V domains shown)
VH: QVELVQSGAEVKKPGSSVKVSCKASGGTFSSYAISWVRQAPGQGLEWMGRIIPILGMANYAQKFQGRVTITADKSTYTAYMELSSLRSEDTAVYYCAREGGVDWYFDLWGRGTLVTVSS
VL: DIQLTQSPSSLSASVGDRVTITCRASQGISSALAWYQQKPGKAPKFMIYDASSLESGVPSRFSGSGSGTDFTLTISSLQPEDFATYYCQQFNSSITFGQGTKLEIKR
notes: Fully human monoclonal antibody; also called No 12; Clone ID# 283-07-03
Regarding B3, the Kd in test [1] is 2.1 nM; in test [2] it was 0.3 nM.

B4: 280-50-01 (antibody, human IgG1, kappa, V domains shown)
VH: QVQLVQSGAEVKKPGSSVKVACKASGDTFSSYAISWVRQAPGQGLEWMGRVIPIIGIASYAQNFQGRVTITADRSTSTAYMALSSLRSEDTAVYYCARNWADAFDIWGQGTMVTVSS
VL: DIQLTQSPSSLSASVGDRVTITCRASQGISSVLAWYQQKPGKAPKLLIYAASSLESGVPSRFSGSGSGTDFTLTISSLQPEDFATYYCQQFNSSITFGQGTKVEIKR
notes: Fully human monoclonal antibody; also called No 7; Clone ID# 280-50-01
As to B4, the dissociation constant (Kd) in test [1] was determined as 0.5 nM; in test [2], 0.3 nM.

B5: 280-61-07 (antibody, human IgG1, kappa, V domains shown)
VH: QVQLVQSGAEVKKPGSSVKVACKASGDTFSSYAISWVRQAPGQGLEWMGRVIPIIGIASYAQNFEGRVTITADRSTSTAYMALSSLRSEDTAVYYCARNWADAFDIWGQGTMVTVSS
VL: DIQLTQSPSSLSASVGDRVTITCRASQGISSVLAWYQQKPGKAPKLLIYAASSLESGVPSRFSGSGSGTDFTLTISSLQPEDFATYYCQQFNSSITFGQGTKLEIKR
notes: Fully human monoclonal antibody; also called No 9; Clone ID# 280-61-07
Take B5: the Kd was 0.4 nM in test [1] and 0.3 nM in test [2].

B6: 280-50-01(mut) (antibody, human IgG1, kappa, V domains shown)
VH: QVQLVQSGAEVKKPGSSVKVACKASGDTFSSYAISWVRQAPGQGLEWMGRVIPIIGIASYAQNFQGRVTITADRSTSTAYMALSSLRSEDTAVYYCARNWADAFDIWGQGTMVTVSS
VL: DIQLTQSPSSLSASVGDRVTITCRASQGISSVLAWYQQKPGKAPKLLIYAASSLESGVPSRFSGSGSGTDFTLTISSLQPEDFATYYCQQFDSSITFGQGTKVEIKR
notes: Fully human monoclonal antibody; also called No 8
Regarding B6, the Kd worked out at 1.7 nM in test [1] and 0.4 nM in test [2].

B7: 283-05-01 (antibody, human IgG1, kappa, V domains shown)
VH: QVELVQSGAEVKKPGSSVKVSCKASEDTFSSYAISWVRQAPGQGLEWMGRIIPIIGIVNYAQKFQGRVTITADKSTYTAYMELSSLRSEDTAVYYCAREGGVDWYFDLWGRGTLVTVSS
VL: DIQLTQSPSSLSASVGDRVTITCRASQGISSALAWYQQKPGKAPKFMIYDASSLESGVPSRFSGSGSGTDFTLTISSLQPEDFATYYCQQFNSSITFGQGTKLEIKR
notes: Fully human monoclonal antibody; also called No 11; Clone ID# 283-05-01
For B7, the dissociation constant Kd in test [1] came to 1.1 nM.

B8: 280-31-01 (antibody, human IgG1, kappa, V domains shown)
VH: QVQLVQSGAEVKKPGSSVKVSCKASGGTFSDYAISWVRQAPGQGLEWMGRIIPILGVADYAQKFQGRVTITADKSTRTAYMELSSLRSEDTAVYYCARNWADAFDIWGQGTMVTVSS
VL: DIQLTQSPSSLSASVGDRVTITCRASQGISSVLAWYQQKPGKAPKLLIYDASSLESGVPSRFSGSGSGTDFTLTISSLQPEDFATYYCQQFNSSITFGQGTKLEIKR
notes: Fully human monoclonal antibody; also called No 4; Clone ID# 280-31-01
On to B8, for which the Kd in test [1] is 0.3 nM.

B9: 280-21-09 (antibody, human IgG1, kappa, V domains shown)
VH: QVQLVQSGAEVKKPGSSVKVSCKASGDTFSSYAISWVRQAPGQGLEWMGRIIPIINIASYAQNFQGRVTITADKSTNTAYMELSSLRSEDTAVYYCARNWADAFDIWGQGTMVTVSS
VL: DIQLTQSPSSLSASVGDRVTITCRASQGISSALAWYQQKPGKAPKLLIYDASSLESGVPSRFSGSGSGTDFTLTISSLQPEDFATYYCQQFNSSITFGQGTKLEIKR
notes: Fully human monoclonal antibody; also called No 2; Clone ID# 280-21-09
As for B9, in test [1], the Kd worked out at 0.3 nM.

B10: 283-14-01 (antibody, human IgG1, kappa, V domains shown)
VH: QVQLVQSGAEVKKPGSSVKVSCKASGGTFSSYAISWVRQAPGQGLEWMGRIIPILGIANYAQKFQGRVTITADKSTYTAYMELSSLRSEDTAVYYCAREGGVDWYFDLWGRGTLVTVSS
VL: DIQLTQSPSSLSASVGDRVTITCRASQGISSALAWYQQKPGKAPKFMIYDASSLESGVPSRFSGSGSGTDFTLTISSLQPEDFATYYCQQFNSSITFGQGTKLEIKR
notes: Fully human monoclonal antibody; also called No 14; Clone ID# 283-14-01
As to B10, the dissociation constant Kd in test [1] turned out to be 2.3 nM.

B11: 280-31-01(mut) (antibody, human IgG1, kappa, V domains shown)
VH: QVQLVQSGAEVKKPGSSVKVSCKASGGTFSDYAISWVRQAPGQGLEWMGRIIPILGVADYAQKFQGRVTITADKSTRTAYMELSSLRSEDTAVYYCARNWADAFDIWGQGTMVTVSS
VL: DIQLTQSPSSLSASVGDRVTITCRASQGISSVLAWYQQKPGKAPKLLIYDASSLESGVPSRFSGSGSGTDFTLTISSLQPEDFATYYCQQFDSSITFGQGTKLEIKR
notes: Fully human monoclonal antibody; also called No 5
As for B11, the Kd in test [1] came out at 0.5 nM.

B12: 280-29-12 (antibody, human IgG1, kappa, V domains shown)
VH: QVQLVQSGTEVKKPGSSVKVSCKVSGDTFSSYAISWVRQAPGQGLEWMGRIIPIIGIANYAQKFQGRVTITADKSTSTAYMELSSLRSEDTAVYYCARHWLDAFDIWGQGTMVTVSS
VL: DIQLTQSPSSLSASVGDRVTITCRASQGISSALAWSQQKPGKAPKLLIYDASSLESGVPSRFSGSGSGTDFTLTISSLQPEDFATYYCQQFNSSITFGQGTKLEIKR
notes: Fully human monoclonal antibody; also called No 3; Clone ID# 280-29-12
For B12, in test [1], the dissociation constant (Kd) was 0.6 nM.

B13: 283-03-03 (antibody, human IgG1, kappa, V domains shown)
VH: QVELVQSGAEVKKPGSSVKVSCKASGGTFSSYAISWVRQAPGQGLEWMGRIIPILDMANYAQKFQGRVTITADKSTYTAYMELSSLRSEDTAVYYCAREGGVDWYFDLWGRGTLVTVSS
VL: DIQLTQSPSSLSASVGDRVTITCRASQGISSALAWYQQKPGKAPKFMIYDASSLESGVPSRFSGSGSGTDFTLTISSLQPEDFATYYCQQFNSSITFGQGTKLEIKR
notes: Fully human monoclonal antibody; also called No 10; Clone ID# 283-03-03
As for B13, in test [1], the Kd was 1.9 nM.

B14: 283-11-03 (antibody, human IgG1, kappa, V domains shown)
VH: QVQLVQSGAEVKKPGSSMKVSCKASEDTFSSYAISWVRQAPGQGLEWMGRIIPIIGIVNYAQKFQGRVTITADKSTCTAYMELTSLRSEDTAVYYCAREGGVDWYFDLWGRGTLVTVSS
VL: DIQLTQSPSSLSASVGDRVTITCRASQGISSALAWYQQKPGKAPKFMIYDASSLESGVPSRFSGSGSGTDFTLTISSLQPEDFATYYCQQFNSSITFGQGTKLEIKR
notes: Fully human monoclonal antibody; also called No 13; Clone ID# 283-11-03
Turning to B14, in test [1], the Kd came out at 0.6 nM.
